Measurements reported in publication PMC6165294, “The Effect of Ca^2+, Lobe-Specificity, and CaMKII on CaM Binding to NaV1.1” (International Journal of Molecular Sciences, 2018).
Ends that are not written are not given here.

Target: T1, calmodulin (CaM), human, wild type (human, UniProt P0DP23 1-149)
T1 construct: human calmodulin, subcloned from HEK293 cells; Vector pGEX-6P-1; also called wt CaM; apoCaM; source: E. coli BL21 (DE3), GST fusion purified on Glutathione Sepharose 4B; GST cleaved with PreScission Protease
Experiment: pull-down; GST-fusion mutated IQ (T1909A, S1918A, T1934A), treated with CaMKII and CIP, incubated with a fixed concentration of CaM (1.4 uM); [Ca2+] ≈ free; Coomassie stain
Conditions: both partners purified

B1: GST-fusion NaV1.1 IQ domain, potential CaMKII phosphorylation sites mutant (T1909A + S1918A + T1934A) (domain or fragment)
chain: ALKRKQEEVAAVIIQRAYRRHLLKRAVK
modifications: not fully specified (N-terminus); also: GST fusion protein
notes: IQ domain of human NaV1.1, amino acids 1909-1936, with T1909A, S1918A and T1934A; the treated samples are kept as one molecule; also called mutated NaV1.1 IQ; source: E. coli BL21 (DE3), GST fusion purified on Glutathione Sepharose 4B beads
- binding result: binds
